The text below walks through data of PMC8443706, “Functionally diverse heteromeric traps for ligands of the transforming growth factor-β superfamily” (Scientific Reports, 2021).

Bounds are passed on as bounds.

One may read the koff as a measure of how fast the partners let go of each other. A lower koff goes with a long-lived complex. Broadly, the kon is the rate constant with which the complex forms. Read a low kon as slow association.

For test [1], the target named is T1, growth differentiation factor 8 (GDF8, or myostatin) (human, UniProt O14793 267-375).
T1 sequence (looked up): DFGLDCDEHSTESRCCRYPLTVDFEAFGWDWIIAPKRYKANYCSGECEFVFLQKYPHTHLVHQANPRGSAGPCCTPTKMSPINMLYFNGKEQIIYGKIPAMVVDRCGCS
The experiment in a line: cell-based or functional assay.

The target of test [2] is T2, GDF11 (human, UniProt O95390 299-407).
T2 sequence (looked up): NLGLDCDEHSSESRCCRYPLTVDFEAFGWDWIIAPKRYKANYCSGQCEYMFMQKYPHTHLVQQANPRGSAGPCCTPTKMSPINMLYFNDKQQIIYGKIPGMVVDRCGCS
Nature of the test: cell-based or functional assay.

The target in the next test is T3, BMP9 (human, UniProt Q9UK05 320-429).
T3 sequence (looked up): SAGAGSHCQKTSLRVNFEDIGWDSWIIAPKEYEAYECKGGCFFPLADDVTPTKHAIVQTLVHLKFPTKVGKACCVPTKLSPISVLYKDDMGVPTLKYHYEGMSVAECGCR
Nature of the test: cell-based or functional assay.

The target of the next test is T4, BMP10 (human, UniProt O95393 317-424).
T4 sequence (looked up): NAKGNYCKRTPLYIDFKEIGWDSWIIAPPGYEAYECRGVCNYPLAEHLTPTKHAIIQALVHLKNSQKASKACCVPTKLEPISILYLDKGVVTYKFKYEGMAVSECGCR
The experiment in a line: cell-based or functional assay.

Test [3] addresses T5, activin A (human, UniProt P08476 311-426).
T5 sequence (looked up): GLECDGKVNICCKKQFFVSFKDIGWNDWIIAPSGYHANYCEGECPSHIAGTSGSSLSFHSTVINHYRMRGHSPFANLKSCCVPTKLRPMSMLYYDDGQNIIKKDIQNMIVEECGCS
Nature of the test: cell-based or functional assay.

Another test concerns the target T6, activin B (human, UniProt P09529 293-407).
T6 sequence (looked up): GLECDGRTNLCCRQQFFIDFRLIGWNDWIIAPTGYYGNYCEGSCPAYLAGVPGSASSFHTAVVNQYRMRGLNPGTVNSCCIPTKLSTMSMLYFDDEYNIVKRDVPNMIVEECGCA
Nature of the test: cell-based or functional assay.

A further test has as its target T7, BMP7 (human, UniProt P18075 293-431).
T7 construct: source: bought: R&D Systems
T7 sequence (looked up): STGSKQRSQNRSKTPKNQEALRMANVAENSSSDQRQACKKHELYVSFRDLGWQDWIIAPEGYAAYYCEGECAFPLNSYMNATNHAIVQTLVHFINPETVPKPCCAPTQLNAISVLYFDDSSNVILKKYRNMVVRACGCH
The experiment in a line: SPR; same experiment as a1 (Biacore 8K, 37 °C, receptor dimers captured by anti-human Fc, HBS-EP+ with 350 mM NaCl added and 0.5 mg/mL BSA) but fitted with a bivalent analyte model (bold cells of Table 1); the first binding step is the one considered. As to conditions: both partners purified. On the technique in general: Surface plasmon resonance follows binding to a sensor surface in real time, without labels.

For the next test, the target named is T8, BMP6 (human, UniProt P22004 375-513).
T8 construct: source: bought: R&D Systems
T8 sequence (looked up): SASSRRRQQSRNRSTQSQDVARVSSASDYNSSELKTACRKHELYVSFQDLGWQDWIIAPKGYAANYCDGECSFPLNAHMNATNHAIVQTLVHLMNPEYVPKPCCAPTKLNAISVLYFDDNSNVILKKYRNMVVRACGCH
Nature of the test: SPR; Biacore 8K, 37 °C; Fc-fusion receptor dimers captured by anti-human Fc antibody on a CM5 chip (100-150 RU); ligands injected in two-fold dilution series (300 s association, 600 s dissociation); HBS-EP+ supplemented with 350 mM NaCl and 0.5 mg/mL BSA; 1:1 Langmuir model with a term for mass transport. As to conditions: both partners purified.

Test [4] deals with T2, GDF11. Described as above. As to conditions: both partners purified.
The target of test [5] is T5, activin A. The test is described as above. The settings on record: both partners purified.

B1: IIB-Fc:IIB-Fc homodimer (human ActRIIB ECD fused to human IgG1 Fc) (Fc fusion, UniProt Q13705-1 19-134, looked up)
chain: SGRGEAETRECIYYNANWELERTNQSGLERCEGEQDKRLHCYASWRNSSGTIELVKKGCWLDDFNCYDRQECVATEENPQVYFCCCEGNFCNERFTHLPEAGGPEVTYEPPPTAPT
notes: activin receptor type IIB (ActRIIB) extracellular domain, human, aa 19-134 of NP_001097.2; Chains linked by disulfide bonds between the Fc domains; a form with murine IgG2a Fc was used only in mice; also called ActRIIB-Fc homodimer; ActRIIB-Fc; not shown: Fc (human IgG1), C-terminal, kept
For the molecule B1, the “IC50 of the trap for inhibition of ligand-induced SMAD2/3 (CAGA12) luciferase reporter signalling in A204 cells (ligand with the cells' receptors)” value is 0.76 nM in test [1], 0.09 nM in the test with GDF11 [2], 0.11 nM with activin A [3] and 0.06 nM in the test with activin B. Also, the figures for the “IC50 of the trap for inhibition of ligand-induced SMAD1/5/8 (BRE) luciferase reporter signalling in T98G cells (ligand with the cells' receptors)” value with BMP9 and with BMP10 were 0.57 nM and 0.03 nM, respectively. The Kd with BMP7 was over 10 nM; in the test with BMP6, 0.348 nM. Also, the koff is over 0.01 s⁻¹ in the test with BMP7 and 0.00273 s⁻¹ in the test with BMP6. For the same molecule, the kon with BMP7 was determined as 800000 M⁻¹ s⁻¹; with BMP6, 7.8e+06 M⁻¹ s⁻¹.

B2: IIB-Fc:ALK7-Fc heterodimer (human ActRIIB ECD-Fc paired with human ALK7 ECD-Fc) (Fc fusion)
chain 1: SGRGEAETRECIYYNANWELERTNQSGLERCEGEQDKRLHCYASWRNSSGTIELVKKGCWLDDFNCYDRQECVATEENPQVYFCCCEGNFCNERFTHLPEAGGPEVTYEPPPTAPT
chain 2: GLKCVCLLCDSSNFTCQTEGACWASVMLTNGKEQVIKSCVSLPELNAQVFCHSSNNVTKTECCFTDFCNNITLHLPTASPNAPKLGPME
As for B2, the “IC50 of the trap for inhibition of ligand-induced SMAD2/3 (CAGA12) luciferase reporter signalling in A204 cells (ligand with the cells' receptors)” value in [1] came to 9.15 nM; in the test with GDF11 [2], 2.34 nM; in the test with activin A [3] it was 2.86 nM; in the test with activin B it was 0.26 nM. Besides, the “IC50 of the trap for inhibition of ligand-induced SMAD1/5/8 (BRE) luciferase reporter signalling in T98G cells (ligand with the cells' receptors)” value with BMP9 worked out at 31 nM; with BMP10, 2.01 nM.

B3: IIB-Fc:ALK4-Fc heterodimer (human ActRIIB ECD-Fc paired with human ALK4 ECD-Fc) (Fc fusion)
chain 1: SGRGEAETRECIYYNANWELERTNQSGLERCEGEQDKRLHCYASWRNSSGTIELVKKGCWLDDFNCYDRQECVATEENPQVYFCCCEGNFCNERFTHLPEAGGPEVTYEPPPTAPT
chain 2: SGPRGVQALLCACTSCLQANYTCETDGACMVSIFNLDGMEHHVRTCIPKVELVPAGKPFYCLSSEDLRNTHCCYTDYCNRIDLRVPSGHLKEPEHPSMWGPVE
Consider B3, for which the “IC50 of the trap for inhibition of ligand-induced SMAD2/3 (CAGA12) luciferase reporter signalling in A204 cells (ligand with the cells' receptors)” value is 2.04 nM in test [1], 0.34 nM with GDF11 [2], 0.19 nM with activin A [3] and 0.16 nM with activin B. The “IC50 of the trap for inhibition of ligand-induced SMAD1/5/8 (BRE) luciferase reporter signalling in T98G cells (ligand with the cells' receptors)” value with BMP9 turned out to be 8.47 nM; with BMP10 it was 0.7 nM.

B4: IIB-Fc:ALK3-Fc heterodimer (human ActRIIB ECD-Fc paired with human ALK3 ECD-Fc) (Fc fusion)
chain 1: SGRGEAETRECIYYNANWELERTNQSGLERCEGEQDKRLHCYASWRNSSGTIELVKKGCWLDDFNCYDRQECVATEENPQVYFCCCEGNFCNERFTHLPEAGGPEVTYEPPPTAPT
chain 2: QNLDSMLHGTGMKSDSDQKKSENGVTLAPEDTLPFLKCYCSGHCPDDAINNTCITNGHCFAIIEEDDQGETTLASGCMKYEGSDFQCKDSPKAQLRRTIECCRTNLCNQYLQPTLPPVVIGPFFDGSIR
As for B4, the “IC50 of the trap for inhibition of ligand-induced SMAD2/3 (CAGA12) luciferase reporter signalling in A204 cells (ligand with the cells' receptors)” value in test [1] was 10.8 nM; with GDF11 [2], 2.42 nM; in the test with activin A [3], 2.62 nM; with activin B it was 1.65 nM. Also, the entries for the “IC50 of the trap for inhibition of ligand-induced SMAD1/5/8 (BRE) luciferase reporter signalling in T98G cells (ligand with the cells' receptors)” value with BMP9 and with BMP10 were 23.4 nM and 1.1 nM, respectively.

B5: ALK4-Fc:ALK4-Fc homodimer (R&D Systems Cat #808-AR-100) (Fc fusion, human, UniProt P36896-1 24-126, looked up)
chain: SGPRGVQALLCACTSCLQANYTCETDGACMVSIFNLDGMEHHVRTCIPKVELVPAGKPFYCLSSEDLRNTHCCYTDYCNRIDLRVPSGHLKEPEHPSMWGPVE
notes: activin receptor-like kinase 4 (ALK4) extracellular domain, human; Bought product; source: bought: R&D Systems (Cat #808-AR-100); not shown: Fc (human)
In the case of B5, in the test with activin A [3], the “IC50 of the trap for inhibition of ligand-induced SMAD2/3 (CAGA12) luciferase reporter signalling in A204 cells (ligand with the cells' receptors)” value was over 100 nM. In the test with GDF11 [4], the Kd is over 10 nM, the koff is over 0.01 s⁻¹ and the kon is 500000 M⁻¹ s⁻¹. In the test with activin A [5], this molecule displayed a Kd of over 10 nM, a koff of over 0.01 s⁻¹ and a kon of 200000 M⁻¹ s⁻¹.
